The experiment concerns the target T1, human CD161 (human, UniProt Q12918 1-225).
T1 construct: UniProt Q12918; also called hCD161; KLRB1
Kind of experiment: blocking assay by flow cytometry: 500 nM biCLEC2D on Jurkat hCD161+ cells with 1, 10 or 100 nM antibody, SA-AF647; blocked ligand biCLEC2D; control 500 nM biCLEC2D on Jurkat WT. Background: A flow cytometer gives signals particle by particle.

B1: KM12.3.2 (antibody, V domains shown)
VH: EVQLVESGGGLVQPGGSLRLSCAASGFTFSSYAMSWIRQAPGKGLEWVSAISGSGGSIYYADSVKGRFTISRDNSKNTLYLQMDSLRAEDTAVYYCARGYSDSYFYGPYYTFDYWGQGTLVTVSS
VL: not shown
Turning to B1, the binding result is “binds”.

(Values after US20210122826A1 (MIT, published 2021).)
